In patent publication US8465945B2, “Method for production and use of mite group 1 proteins” (Merck Patent GmbH, priority 1999, dated 2013):

Key:
[1] = system: IgE from mite-allergic or normal human sera; assay: ELISA, binding of IgE from human sera to coated Der f 1 proteins or mite extracts, detected with FcεR1α-biotin
[2] = system: IgE from mite-allergic dog sera; assay: ELISA, binding of IgE from dog sera to coated Der f 1 proteins or mite extracts, detected with FcεR1α-biotin
Protocol: Native or recombinant Der f 1 proteins in 100 μl CBC buffer (50 mM sodium carbonate, pH 9.6) were coated onto wells (100 ng per well) of Immulon II microtiter plates (available from Dynex Technologies, Chantilly, Va.) by incubation at 4° C., covered, overnight. Excess fluid was removed and wells were blocked with 200 μl Assay Buffer (4% fetal calf serum (available from Summit Laboratories, Fort Collins, Colo.) in phosphate buffered saline (PBS, recipe in Sambrook, ibid.), plus 0.05% Tween-20 (available from Sigma, St. Louis, Mo.)) for one hour at room temperature. Plates were then washed for 4 cycles on an automatic plate washer (Ultrawash, available from Dynatech Laboratories) using PBS with 0.05% Tween-20. […] Control wells were treated identically except that no serum was added. Plates were then washed as described above. Biotinylated human IgE receptor alpha chain (FcεR1α-biotin) (100 μl of 1.3 ng/ml) prepared as described in U.S. Pat. No. 5,945,294, ibid., was added and incubated for one hour at room temperature. After this incubation, plates were washed as described above. Streptavidin-horseradish peroxidase conjugate (0.5 mg/ml, available from KPL Labs, Gaithersburg, Md.) was added at a 1:5000 dilution in Assay Buffer for one hour at room temperature, after which plates were washed as described above. TMB Peroxidase substrate system, 2 part (available from KPL Labs, #0-76-00), added at 100 μl per well, was used according to the manufacturer's directions. The color reaction was allowed to proceed until good color development was reached (about 10-15 min); then the reaction was stopped with 100 μl per well of 1 M phosphoric acid. Bound IgE was determined by measuring absorbance (Optical Density, or OD) at 450 nm (nanometers) using an ELISA plate reader (such as Spectramax”, Molecular Devices, Sunnyvale, Calif.). Background OD readings in the control wells were subtracted from all numbers. Results are reported in Tables 1, 2 and 3 as OD multiplied by 1000. OD numbers greater than 100 are considered to be positive for a reaction with IgE. P. pastoris-expressed proteins are denoted in the Tables as Pichia expressed proteins.

[3] = system: anti-Der f 1 MAb 6A8 (capture) and anti-Der f 1 MAb 4C1 (detection); assay: Monoclonal Capture ELISA; type: binding
Protocol: Assays were carried out as follows. A microtiter plate as described in Example 5 was coated overnight at 4° C. with 100 ng/well of anti-Der f 1 protein monoclonal antibody 6A8, denoted herein as anti-Der f 1 MAb 6A8, provided by Dr. Martin Chapman. The plate was washed in the manner described above. The following proteins were then added to wells, having been diluted in Assay Buffer in a 2-fold dilution series, from 0.75 to 50 ng/well: Heska native Derf1, P. pastoris-expressed PDerf1303b, and E. coli-expressed PDerf1303c. After incubation for 1 hour at room temperature, plates were washed as described in Example 5. Then 100 μl per well of a 1:1000 dilution in Assay Buffer of biotinylated anti-Der f 1 monoclonal antibody 4C1, also denoted anti-Der f 1 MAb 4C1, provided by Dr. Martin Chapman, was added for 1 hour at room temperature. Plates were washed, streptavidin-HRP conjugate was added, and plates were developed as described in Example 5.

B1: PDerf1223b: Recombinant mature form of Der f 1 (SEQ ID NO:32) expressed by P. pastoris from nDerf1669b (protein, listed as Dermatophagoides farinae)
chain: TSACRINSVNVPSELDLRSLRTVTPIRMQGGCGSCWAFSGVAATESAYLAYRNTSLDLSEQELVDCASQHGCHGDTIPRGIEYIQQNGVVEERSYPYVAREQRCRRPNSQHYGISNYCQIYPPDVKQIREALTQTHTAIAVIIGIKDLRAFQHYDGRTIIQHDNGYQPNYHAVNIVGYGSTQGVDYWIVRNSWDTTWGDSGYGYFQAGNNLMMIEQYPYVVIM
- OD, bound IgE ([1]; Table 3, sera 429, PDerf1303b preparation number A166-26, PDerf1223b preparation 1000-7): 63 OD multiplied by 1000
- OD, bound IgE ([1]; Table 3, sera 1916, PDerf1303b preparation number A166-26, PDerf1223b preparation 1000-7): 0 OD multiplied by 1000
- OD, bound IgE ([1]; Table 3, sera 3848, PDerf1303b preparation number A166-26, PDerf1223b preparation 1000-7): 1253 OD multiplied by 1000
- OD, bound IgE ([1]; Table 3, sera 3958, PDerf1303b preparation number A166-26, PDerf1223b preparation 1000-7): 1224 OD multiplied by 1000
- OD, bound IgE ([1]; Table 3, sera 3960, PDerf1303b preparation number A166-26, PDerf1223b preparation 1000-7): 634 OD multiplied by 1000
- OD, bound IgE ([1]; Table 3, sera 3961, PDerf1303b preparation number A166-26, PDerf1223b preparation 1000-7): 301 OD multiplied by 1000
- OD, bound IgE ([1]; Table 3, sera 3987, PDerf1303b preparation number A166-26, PDerf1223b preparation 1000-7): 1078 OD multiplied by 1000
- OD, bound IgE ([1]; Table 3, sera 4467, PDerf1303b preparation number A166-26, PDerf1223b preparation 1000-7): 432 OD multiplied by 1000
- OD, bound IgE ([1]; Table 3, sera 5207, PDerf1303b preparation number A166-26, PDerf1223b preparation 1000-7): 1096 OD multiplied by 1000
- OD, bound IgE ([1]; Table 3, sera human pool, PDerf1303b preparation number A166-26, PDerf1223b preparation 1000-7): 774 OD multiplied by 1000

B2: PDerf1303c: Recombinant pro-form of Der f 1 (SEQ ID NO:35) expressed in E. coli from nDerf1909c, refolded from inclusion bodies (protein, listed as Dermatophagoides farinae)
chain: RPASIKTFEEFKKAFNKNYATVEEEEVARKNFLESLKYVEANKGAINHLSDLSLDEFKNRYLMSAEAFEQLKTQFDLNAETSACRINSVNVPSELDLRSLRTVTPIRMQGGCGSCWAFSGVAATESAYLAYRNTSLDLSEQELVDCASQHGCHGDTIPRGIEYIQQNGVVEERSYPYVAREQRCRRPNSQHYGISNYCQIYPPDVKQIREALTQTHTAIAVIIGIKDLRAFQHYDGRTIIQHDNGYQPNYHAVNIVGYGSTQGVDYWIVRNSWDTTWGDSGYGYFQAGNNLMMIEQYPYVVIM
- OD, bound IgE ([1]; Assay Number 1, serum human 1916): 18 OD multiplied by 1000
- OD, bound IgE ([1]; Assay Number 1, serum human3848): 2291 OD multiplied by 1000
- OD, bound IgE ([1]; Assay Number 1, serum human 3958): 147 OD multiplied by 1000
- OD, bound IgE ([1]; Assay Number 1, serum human 3960): 1442 OD multiplied by 1000
- OD, bound IgE ([1]; Assay Number 1, serum human 3961): 67 OD multiplied by 1000
- OD, bound IgE ([1]; Assay Number 1, serum human 3987): 1416 OD multiplied by 1000
- OD, bound IgE ([1]; Assay Number 1, serum human 4289): 29 OD multiplied by 1000
- OD, bound IgE ([1]; Assay Number 1, serum human 4467): 236 OD multiplied by 1000
- OD, bound IgE ([1]; Assay Number 1, serum human 5207): 1902 OD multiplied by 1000
- OD, bound IgE ([1]; Assay Number 1, serum human pool): 883 OD multiplied by 1000
- OD, bound IgE ([1]; Assay Number 2, serum Heska human B): 0 OD multiplied by 1000
- OD, bound IgE ([1]; Assay Number 2, serum Heska human C): 4 OD multiplied by 1000
- OD, bound IgE ([1]; Assay Number 2, serum Heska human D): 0 OD multiplied by 1000
- OD, bound IgE ([1]; Assay Number 2, serum Heska human E): 10 OD multiplied by 1000
- OD, bound IgE ([1]; Assay Number 2, serum Heska human F): 0 OD multiplied by 1000
- OD, bound IgE ([1]; Assay Number 2, serum Heska human G): 0 OD multiplied by 1000
- OD, bound IgE ([1]; Assay Number 2, serum Heska human H): 0 OD multiplied by 1000
- OD, bound IgE ([1]; Assay Number 2, serum Heska human I): 1 OD multiplied by 1000
- OD, bound IgE ([1]; Assay Number 2, serum Heska human J): 0 OD multiplied by 1000
- OD, bound IgE ([1]; Assay Number 2, serum Heska human K): 0 OD multiplied by 1000
- OD, bound IgE ([1]; Assay Number 2, serum Heska human L): 0 OD multiplied by 1000
- OD, bound IgE ([1]; Assay Number 2, serum Heska human M): 0 OD multiplied by 1000
- OD, bound IgE ([1]; Assay Number 2, serum Heska human N): 24 OD multiplied by 1000
- OD, bound IgE ([1]; Assay Number 2, serum Heska human O): 2 OD multiplied by 1000
- OD, bound IgE ([1]; Assay Number 2, serum Heska human P): 0 OD multiplied by 1000
- OD, bound IgE ([1]; Assay Number 2, serum Heska human Q): 0 OD multiplied by 1000
- OD, bound IgE ([1]; Assay Number 2, serum Heska human R): 0 OD multiplied by 1000
- OD, bound IgE ([1]; Assay Number 2, serum human 1916): 21 OD multiplied by 1000
- OD, bound IgE ([1]; Assay Number 2, serum human 3848): 2378 OD multiplied by 1000
- OD, bound IgE ([1]; Assay Number 2, serum human 3958): 247 OD multiplied by 1000
- OD, bound IgE ([1]; Assay Number 2, serum human 3960): 944 OD multiplied by 1000
- OD, bound IgE ([1]; Assay Number 2, serum human 3961): 46 OD multiplied by 1000
- OD, bound IgE ([1]; Assay Number 2, serum human 3987): 1477 OD multiplied by 1000
- OD, bound IgE ([1]; Assay Number 2, serum human 4289): 47 OD multiplied by 1000
- OD, bound IgE ([1]; Assay Number 2, serum human 4467): 277 OD multiplied by 1000
- OD, bound IgE ([1]; Assay Number 2, serum human 5207): 2122 OD multiplied by 1000
- OD, bound IgE ([1]; Assay Number 2, serum human pool): 1161 OD multiplied by 1000
- reactivity: share of human serum samples reactive to native Der f 1 proteins that are also reactive to the recombinant protein ([1]; Table 1, 9 human samples (8 sera and pool), OD numbers greater than 100 positive): 78%
- reactivity: share of human serum samples reactive to native Der f 1 proteins that are also reactive to the recombinant protein ([1]; Table 2, 10 human serum samples): 70%
- OD, bound IgE ([2]; Assay Number 1, serum dog pool): 615 OD multiplied by 1000
- OD, bound IgE ([2]; Assay Number 1, serum dog-1): 0 OD multiplied by 1000
- OD, bound IgE ([2]; Assay Number 1, serum dog-2): 258 OD multiplied by 1000
- OD, bound IgE ([2]; Assay Number 1, serum dog-3): 45 OD multiplied by 1000
- OD, bound IgE ([2]; Assay Number 2, dog sera pool A 146): 489 OD multiplied by 1000
- OD, bound IgE ([2]; Assay Number 2, dog sera pool KS338): 68 OD multiplied by 1000
- dog serum samples bound, of those that bound to native Der f 1 proteins ([2]; Table 1): 1 of 2
- OD, protein captured by MAb 6A8 and detected by MAb 4C1 ([3]; 0.75 ng protein per well): 136 OD
- OD, protein captured by MAb 6A8 and detected by MAb 4C1 ([3]; 1.5 ng protein per well): 268 OD
- OD, protein captured by MAb 6A8 and detected by MAb 4C1 ([3]; 2.5 ng protein per well): 1372 OD
- OD, protein captured by MAb 6A8 and detected by MAb 4C1 ([3]; 3.1 ng protein per well): 503 OD
- OD, protein captured by MAb 6A8 and detected by MAb 4C1 ([3]; 6.25 ng protein per well): 890 OD
- OD, protein captured by MAb 6A8 and detected by MAb 4C1 ([3]; 25 ng protein per well): 1770 OD
- OD, protein captured by MAb 6A8 and detected by MAb 4C1 ([3]; 50 ng protein per well): 1983 OD
